Data published in US20100081612A1 (GENERAL HOSPITAL, published 2010).
Read-outs that look alike come from different tables or passages of the source. Each block holds one binder with its values, some of them ahead of it. Where no end group is shown, it is not given here. [ ]: non-standard residue; d: D form. Apa = (S)-2-amino-4[(2-amino)pyrimidinyl]methylalanine; Phe(4-guanidino) = N=C(N)Nc1ccc(C[C@H](N)C(=O)O)cc1; Cha = N[C@@H](CC1CCCCC1)C(=O)O; Orn = NCCC[C@H](N)C(=O)O

Legend:
wild-type human PTHR [1] = molecular target: T1, wild-type human PTHR (human, UniProt Q03431 27-593); test: competition binding, HKRK-B7 cells, 125I-PTH(1-34) tracer
T1 sequence (looked up): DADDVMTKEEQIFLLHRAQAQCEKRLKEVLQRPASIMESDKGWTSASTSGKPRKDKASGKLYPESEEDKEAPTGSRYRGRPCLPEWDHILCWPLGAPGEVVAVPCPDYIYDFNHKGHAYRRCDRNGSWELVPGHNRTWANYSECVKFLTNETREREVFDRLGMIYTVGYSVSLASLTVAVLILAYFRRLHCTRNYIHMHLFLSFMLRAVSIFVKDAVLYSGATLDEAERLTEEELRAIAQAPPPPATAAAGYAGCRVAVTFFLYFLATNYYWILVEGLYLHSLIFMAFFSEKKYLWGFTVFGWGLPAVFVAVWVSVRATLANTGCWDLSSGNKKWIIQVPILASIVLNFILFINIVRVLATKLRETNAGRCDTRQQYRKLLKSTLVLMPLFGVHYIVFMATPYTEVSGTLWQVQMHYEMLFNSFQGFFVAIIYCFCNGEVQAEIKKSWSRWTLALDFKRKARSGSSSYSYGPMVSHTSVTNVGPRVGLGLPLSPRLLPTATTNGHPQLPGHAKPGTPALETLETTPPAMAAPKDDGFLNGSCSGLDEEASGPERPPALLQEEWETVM

PTHR-delNt (human) [2] = molecular target: PTHR-delNt (human) (UniProt Q03431); test: competition binding, COS-7 membranes, 125I-[Aib1,3,M]PTH(1-15) tracer
[3] = molecular target: T2, rat PTHR endogenously expressed in ROS 17/2.8 cells (rat, UniProt P25961 27-591); test: cell-based or functional assay
T2 sequence (looked up): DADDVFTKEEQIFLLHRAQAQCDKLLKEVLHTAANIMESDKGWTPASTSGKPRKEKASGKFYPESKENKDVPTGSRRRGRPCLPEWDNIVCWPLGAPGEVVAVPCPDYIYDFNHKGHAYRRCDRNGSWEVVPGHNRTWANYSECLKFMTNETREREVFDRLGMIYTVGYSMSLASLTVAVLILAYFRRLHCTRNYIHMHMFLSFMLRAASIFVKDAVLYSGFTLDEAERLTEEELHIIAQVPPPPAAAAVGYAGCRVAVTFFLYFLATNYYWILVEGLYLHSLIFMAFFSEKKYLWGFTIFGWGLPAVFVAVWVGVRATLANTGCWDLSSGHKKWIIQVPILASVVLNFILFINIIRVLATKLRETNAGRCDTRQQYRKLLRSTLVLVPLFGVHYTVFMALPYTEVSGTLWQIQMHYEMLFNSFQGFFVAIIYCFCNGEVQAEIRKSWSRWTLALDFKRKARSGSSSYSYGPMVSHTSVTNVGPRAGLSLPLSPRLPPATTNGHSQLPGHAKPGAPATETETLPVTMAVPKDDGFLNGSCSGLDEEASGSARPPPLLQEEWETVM

wild-type human PTHR [4] = molecular target: T1, wild-type human PTHR; test: competition binding, HKRK-B7 cells, 125I-PTH(1-34) tracer
wild-type human PTHR [5] = molecular target: T1, wild-type human PTHR; test: as above; remark: listed apart in the source
How it was run: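 Intact HKRK-B7 cells stably expressing hPTHR incubated 4 h at 15° C with ¹²⁵I-PTH(1-34) tracer and unlabeled peptide (3×10⁻⁹ to 1×10⁻⁵ M). Nonspecific binding defined with 1×10⁻⁶ M PTH(1-31)NH₂. Bound activity counted after lysis and expressed as % specific binding without competitor; values in nM, mean ± s.e.m.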

[6] = molecular target: T2, rat PTHR endogenously expressed in ROS …; test: competition binding, ROS 17/2.8 cells, 125I-PTH(1-34) tracer
Description: Receptor binding—Binding to the wild-type human PTHR in intact HKRK-B7 cells and ROS 17/2.8 cells was assessed using ¹²⁵I-PTH(1-34) as a tracer radioligand, as described (Shimizu, M., (2001) Endocrinology 142:3068-3074). In brief, the cells in 24-well plates (about 500,000 cells per well) were incubated in binding buffer containing radioligand (about 100,000 cpm per well) with or without unlabeled peptide ligand (3×10⁻⁹ to 1×10⁻⁵ M) for four hours at 15° C. The binding mixture was then removed by aspiration, the cells were rinsed three times with binding buffer, lysed in 1 M NaOH, and the entire lysate was counted for gamma-irradiation in a gamma counter. Binding to PTHR-delNt in COS-7 cell membranes was assessed in 96-well, vacuum filtration plates (Multiscreen-Durapore HV, […], Millipore Corp., Millford, Mass.) using ¹²⁵I-[Aib^{1,3},M]PTH(1-15)NH₂ as a tracer radioligand, as described (Dean, T., (2006) Mol Endocrinol 20:931-942). In brief, cell membranes (20 μg/well) were incubated in membrane binding buffer containing radioligand (30,000 cpm/well) with or without unlabeled peptide ligand (3×10⁻⁹ to 1×10⁻⁵ M) for 90 minutes at 21° C. The plates were then subject to rapid vacuum filtration, the filters were washed once with buffer, detached from the plate and counted for gamma-irradiation in a gamma counter. Non-specific binding was defined as the binding observed in the presence of 1×10⁻⁶ M PTH(1-31)NH₂ for HKRK-B7 and ROS 17/2.8 cells, and 1×10⁻⁶ M [Aib^{1,3},M]PTH(1-15)NH₂ for PTHR-delNt. Specifically bound radioactivity was calculated as a percentage of the radioactivity specifically bound in the absence of competing ligand.
Effects on cAMP and IP signaling—Selected analogs of [Ala¹,Arg¹⁹]hPTH(1-31)NH₂ with substitutions that markedly impaired binding to HKRK-B7 cells were assessed for their capacity to bind to the PTHR in ROS 17/2.8 cells and to stimulate cAMP-signaling responses in these cells. These bone-derived cells endogenously express the rat PTHR at a more physiological level than is found in HKRK-B7 cells (approximately 80,000 PTHRs per cell vs. 950,000 PTHRs per cell) and, have generally been found (data not shown) to yield closer correlations between PTH analog binding affinity and cAMP-signaling potency than do HKRK-B7 cells, presumably due to their lower PTHR expression level.

PTHR-delNt (human) [7] = molecular target: PTHR-delNt (human) (UniProt Q03431); test: competition binding, COS-7 membranes, 125I-[Aib1,3,M]PTH(1-15) tracer; remark: listed apart in the source

IC50 (wild-type human PTHR [1]): > 10000 nM
IC50 (PTHR-delNt (human) [2]): 5530 nM
fold difference of IC50 from PTH(1-31)NH2 (PTHR-delNt (human) [2]): < 4 fold
B1: PTH(1-31)NH2 Arg^20→Orn (peptide)
peptide: SVSEIQLMHNLGKHLNSME[Orn]VEWLRKKLQDV-NH2
modifications: N-terminus assumed
SMILES: CC[C@H](C)[C@H](NC(=O)[C@H](CCC(=O)O)NC(=O)[C@H](CO)NC(=O)[C@@H](NC(=O)[C@@H](N)CO)C(C)C)C(=O)N[C@@H](CCC(N)=O)C(=O)N[C@@H](CC(C)C)C(=O)N[C@@H](CCSC)C(=O)N[C@@H](Cc1c[nH]cn1)C(=O)N[C@@H](CC(N)=O)C(=O)N[C@@H](CC(C)C)C(=O)NCC(=O)N[C@@H](CCCCN)C(=O)N[C@@H](Cc1c[nH]cn1)C(=O)N[C@@H](CC(C)C)C(=O)N[C@@H](CC(N)=O)C(=O)N[C@@H](CO)C(=O)N[C@@H](CCSC)C(=O)N[C@@H](CCC(=O)O)C(=O)N[C@@H](CCCN)C(=O)N[C@H](C(=O)N[C@@H](CCC(=O)O)C(=O)N[C@@H](Cc1c[nH]c2ccccc12)C(=O)N[C@@H](CC(C)C)C(=O)N[C@@H](CCCNC(=N)N)C(=O)N[C@@H](CCCCN)C(=O)N[C@@H](CCCCN)C(=O)N[C@@H](CC(C)C)C(=O)N[C@@H](CCC(N)=O)C(=O)N[C@@H](CC(=O)O)C(=O)N[C@H](C(N)=O)C(C)C)C(C)C

IC50 (wild-type human PTHR [1]): > 10000 nM
IC50 (PTHR-delNt (human) [2]): 5740 nM
fold difference of IC50 from PTH(1-31)NH2 (PTHR-delNt (human) [2]): < 4 fold
Binder: SVSEIQLMHNLGKHLNSME[Apa]VEWLRKKLQDV-NH2 [PTH(1-31)NH2 Arg^20→Apa]

cAMP EC50, ROS 17/2.8 cells [3]: 0.82 nM
fold reduction in binding affinity vs [Ala^1,Arg^19]PTH(1-31)NH2 (wild-type human PTHR [4]): 14 fold
fold reduction in binding vs [Ala^1,Arg^19]PTH(1-31)NH2 (wild-type human PTHR [4]): ~12 fold
IC50 (wild-type human PTHR [5]): 546 nM
IC50 (PTHR-delNt (human) [2]): 867 nM
fold change in binding affinity vs [Ala^1,Arg^19]PTH(1-31)NH2 (PTHR-delNt (human) [2]): < 3 fold
IC50 [6]: 19 nM
B2: [Ala^1,Arg^19]hPTH(1-31)NH2 Trp^23→Cha (peptide)
peptide: AVSEIQLMHNLGKHLNSMRRVE[Cha]LRKKLQDV-NH2
modifications: N-terminus assumed
SMILES: CC[C@H](C)[C@H](NC(=O)[C@H](CCC(=O)O)NC(=O)[C@H](CO)NC(=O)[C@@H](NC(=O)[C@H](C)N)C(C)C)C(=O)N[C@@H](CCC(N)=O)C(=O)N[C@@H](CC(C)C)C(=O)N[C@@H](CCSC)C(=O)N[C@@H](Cc1c[nH]cn1)C(=O)N[C@@H](CC(N)=O)C(=O)N[C@@H](CC(C)C)C(=O)NCC(=O)N[C@@H](CCCCN)C(=O)N[C@@H](Cc1c[nH]cn1)C(=O)N[C@@H](CC(C)C)C(=O)N[C@@H](CC(N)=O)C(=O)N[C@@H](CO)C(=O)N[C@@H](CCSC)C(=O)N[C@@H](CCCNC(=N)N)C(=O)N[C@@H](CCCNC(=N)N)C(=O)N[C@H](C(=O)N[C@@H](CCC(=O)O)C(=O)N[C@@H](CC1CCCCC1)C(=O)N[C@@H](CC(C)C)C(=O)N[C@@H](CCCNC(=N)N)C(=O)N[C@@H](CCCCN)C(=O)N[C@@H](CCCCN)C(=O)N[C@@H](CC(C)C)C(=O)N[C@@H](CCC(N)=O)C(=O)N[C@@H](CC(=O)O)C(=O)N[C@H](C(N)=O)C(C)C)C(C)C

IC50 (wild-type human PTHR [5]): 125 nM
IC50 (PTHR-delNt (human) [2]): 18900 nM
fold reduction in binding affinity vs [Ala^1,Arg^19]PTH(1-31)NH2 (PTHR-delNt (human) [2]): 50 fold
fold reduction in binding affinity vs [Ala^1,Arg^19]PTH(1-31)NH2 (PTHR-delNt (human) [7]): 90 fold
Binder: AVSEIQLMHNLGKHLNSMERVEWLRKKLQDV-NH2 [[Ala^1,Arg^19]hPTH(1-31)NH2 Arg^19→Glu]

cAMP EC50, ROS 17/2.8 cells [3]: 0.83 nM
fold reduction in binding affinity vs [Ala^1,Arg^19]PTH(1-31)NH2 (wild-type human PTHR [4]): 11 fold
fold reduction in binding vs [Ala^1,Arg^19]PTH(1-31)NH2 (wild-type human PTHR [4]): ~12 fold
IC50 (wild-type human PTHR [5]): 436 nM
IC50 (PTHR-delNt (human) [2]): 283 nM
fold change in binding affinity vs [Ala^1,Arg^19]PTH(1-31)NH2 (PTHR-delNt (human) [2]): < 3 fold
IC50 [6]: 7.3 nM
B3: [Ala^1,Arg^19]hPTH(1-31)NH2 Leu^24→Cha (peptide)
peptide: AVSEIQLMHNLGKHLNSMRRVEW[Cha]RKKLQDV-NH2
modifications: N-terminus assumed
SMILES: CC[C@H](C)[C@H](NC(=O)[C@H](CCC(=O)O)NC(=O)[C@H](CO)NC(=O)[C@@H](NC(=O)[C@H](C)N)C(C)C)C(=O)N[C@@H](CCC(N)=O)C(=O)N[C@@H](CC(C)C)C(=O)N[C@@H](CCSC)C(=O)N[C@@H](Cc1c[nH]cn1)C(=O)N[C@@H](CC(N)=O)C(=O)N[C@@H](CC(C)C)C(=O)NCC(=O)N[C@@H](CCCCN)C(=O)N[C@@H](Cc1c[nH]cn1)C(=O)N[C@@H](CC(C)C)C(=O)N[C@@H](CC(N)=O)C(=O)N[C@@H](CO)C(=O)N[C@@H](CCSC)C(=O)N[C@@H](CCCNC(=N)N)C(=O)N[C@@H](CCCNC(=N)N)C(=O)N[C@H](C(=O)N[C@@H](CCC(=O)O)C(=O)N[C@@H](Cc1c[nH]c2ccccc12)C(=O)N[C@@H](CC1CCCCC1)C(=O)N[C@@H](CCCNC(=N)N)C(=O)N[C@@H](CCCCN)C(=O)N[C@@H](CCCCN)C(=O)N[C@@H](CC(C)C)C(=O)N[C@@H](CCC(N)=O)C(=O)N[C@@H](CC(=O)O)C(=O)N[C@H](C(N)=O)C(C)C)C(C)C

IC50 (wild-type human PTHR [1]): > 10000 nM
IC50 (PTHR-delNt (human) [2]): 2050 nM
fold difference of IC50 from PTH(1-31)NH2 (PTHR-delNt (human) [2]): < 4 fold
B4: PTH(1-31)NH2 Arg^20→Gph (peptide)
peptide: SVSEIQLMHNLGKHLNSME[Phe(4-guanidino)]VEWLRKKLQDV-NH2
modifications: N-terminus assumed
SMILES: CC[C@H](C)[C@H](NC(=O)[C@H](CCC(=O)O)NC(=O)[C@H](CO)NC(=O)[C@@H](NC(=O)[C@@H](N)CO)C(C)C)C(=O)N[C@@H](CCC(N)=O)C(=O)N[C@@H](CC(C)C)C(=O)N[C@@H](CCSC)C(=O)N[C@@H](Cc1c[nH]cn1)C(=O)N[C@@H](CC(N)=O)C(=O)N[C@@H](CC(C)C)C(=O)NCC(=O)N[C@@H](CCCCN)C(=O)N[C@@H](Cc1c[nH]cn1)C(=O)N[C@@H](CC(C)C)C(=O)N[C@@H](CC(N)=O)C(=O)N[C@@H](CO)C(=O)N[C@@H](CCSC)C(=O)N[C@@H](CCC(=O)O)C(=O)N[C@@H](Cc1ccc(NC(=N)N)cc1)C(=O)N[C@H](C(=O)N[C@@H](CCC(=O)O)C(=O)N[C@@H](Cc1c[nH]c2ccccc12)C(=O)N[C@@H](CC(C)C)C(=O)N[C@@H](CCCNC(=N)N)C(=O)N[C@@H](CCCCN)C(=O)N[C@@H](CCCCN)C(=O)N[C@@H](CC(C)C)C(=O)N[C@@H](CCC(N)=O)C(=O)N[C@@H](CC(=O)O)C(=O)N[C@H](C(N)=O)C(C)C)C(C)C
